According to PMC4764579, “Structural insights into the mechanism of activation of the TRPV1 channel by a membrane-bound tarantula toxin” (eLife, 2016):

B1: bivalent K1 (K1K1) (protein)
chain: GDCAKEGEVCSWGKKCCDLDNFYCPMEFIPHCKKYKPYVPVTTDCAKEGEVCSWGKKCCDLDNFYCPMEFIPHCKKYK
B2: bivalent K2 (K2K2) (protein)
chain: NCAKEGEVCGWGSKCCHGLDCPLAFIPYCEKYRPYVPVTTNCAKEGEVCGWGSKCCHGLDCPLAFIPYCEK

Target: rat TRPV1, full-length channel expressed in HEK293 cells (rat) (UniProt O35433)
Sequence (O35433 whole entry): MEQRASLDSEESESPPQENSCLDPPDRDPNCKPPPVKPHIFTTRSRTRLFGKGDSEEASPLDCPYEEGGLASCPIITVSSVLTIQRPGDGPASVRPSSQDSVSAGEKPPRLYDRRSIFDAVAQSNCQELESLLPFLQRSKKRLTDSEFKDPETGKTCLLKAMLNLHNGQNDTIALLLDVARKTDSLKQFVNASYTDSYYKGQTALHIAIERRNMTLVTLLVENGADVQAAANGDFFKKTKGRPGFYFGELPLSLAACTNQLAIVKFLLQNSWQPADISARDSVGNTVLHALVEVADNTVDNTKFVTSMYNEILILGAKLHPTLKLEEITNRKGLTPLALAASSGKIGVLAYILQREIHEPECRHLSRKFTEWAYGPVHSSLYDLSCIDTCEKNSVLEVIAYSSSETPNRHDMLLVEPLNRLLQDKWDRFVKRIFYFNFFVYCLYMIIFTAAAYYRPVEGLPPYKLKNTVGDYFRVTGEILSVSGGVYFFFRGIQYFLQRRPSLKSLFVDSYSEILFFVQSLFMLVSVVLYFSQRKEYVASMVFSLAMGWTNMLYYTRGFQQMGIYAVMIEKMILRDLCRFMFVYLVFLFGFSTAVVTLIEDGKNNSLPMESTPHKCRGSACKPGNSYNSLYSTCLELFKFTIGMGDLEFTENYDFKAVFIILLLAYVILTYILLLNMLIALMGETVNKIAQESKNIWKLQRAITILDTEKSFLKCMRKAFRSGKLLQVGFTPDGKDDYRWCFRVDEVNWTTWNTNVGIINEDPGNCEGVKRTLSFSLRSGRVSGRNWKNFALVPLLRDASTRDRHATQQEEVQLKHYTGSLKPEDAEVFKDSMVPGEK

| Binder | fractional dissociation 1 min after toxin removal (current 1 min after removal divided by steady-state current with toxin), whole-cell patch clamp at +120 mV, TRPV1 in HEK cells |
| --- | --- |
| B1 | 0.3 |
| B2 | 0.96 |
